PMC3856478 (2013)

Molecular target: T1, Colicin E9 OBS1 peptide 2-18 (Escherichia coli, UniProt P09883)
T1 chain: SGGDGRGHNTGAHSTSG
Experiment: ITC

B1: OmpF (protein)
chain: AEIYNKDGNKVDLYGKAVGLHYFSKGNGENSYGGNGDMTYARLGFKGETQINSDLTGYGQWEYNFQGNNSEGADAQTGNKTRLAFAGLKYADVGSFDYGRNYGVVYDALGYTDMLPEFGGDTAYSDDFFVGRVGGVATYRNSNFFGLVDGLNFAVQYLGKNERDTARRSNGDGVGGSISYEYEGFGIVGAYGAADRTNLQEAQPLGNGKKAEQWATGLKYDANNIYLAANYGETRNATPITNKFTNTSGFANKTQDVLLVAQYQFDFGLRPSIAYTKSKAKDVEGIGDVDLVNYFEVGATYYFNKNMSTYVDYIINQIDSDNKLGVGSDDTVAVGIVYQF
  Kd: ~1000 nM
